Data reported in US20230322924A1 (Janssen / Centocor, published 2023).
Residue numbers refer to the chain shown, from its start.

B1: C33B914 (antibody, V domains shown)
VH: QVQLVESGGGVVQPGRSLRLSCAASGFTFSYYGMHWVRQAPDKGLEWVAVIWFDGNNKYYADSVKGRFTISRDNSKNTLYLQMNSLRAEDTAVYYCARDRELLFDYWGQGTLVTVSS
VL: SYELTQPPSVSVSPGQTASITCSGDELGDMYACWYQQKPGQSPLVVIYQDSKRPSGIPERFSGSNSGNTATLTISGTQAMDEAAYYCQTWDTRIAVFGGGTNLTVL
notes: OMNIMouse-derived anti-CD33 mAb; same V regions as C33B906; also called C33H254/C33L120; C33F552
B2: C33B916 (antibody, V domains shown)
VH: B1 VH with A24T, Y31N, D42G, F53Y, D54V, N56S, N57H, R100G, E101S, L103C
VL: SYELTQPPSVSVSPGQTANISCSGVTLGYNYAYWYQQKPGQSPILVISQDTQRPSGIPERFSGSNSGNTATLTISGTQAMDEAAYYCQAWDITTVLFGGGTKLTVL
notes: OMNIMouse-derived anti-CD33 mAb; same V regions as C33B908; also called C33H256/C33L122; C33F554
B3: BLW-3B4 (antibody, V domains shown)
VH: QVQLQQSGPGLVKPSQTLSLTCAISGDSVFNNNAAWSWIRQSPSRGLEWLGRTYYRSKWLYDYAVSVKSRITVNPDTSRNQFTLQLNSVTPEDTALYYCVRGYSSSFDYWGQGTLVTVSS
VL: QSALTQPASVSGSPGQSITISCTGTSRDIGTYKFVSWYQQHPDKAPKVLLYEVSKRPSGVSSRFSGSKSGNTASLTISGLQAEDQADYHCCSYAGSGTLLFGGGTKLTVL
notes: OmniRat hybridoma supernatant: human V regions on rat constant regions; also called V regions cloned as CD3B313 (CD3H218/CD3L125)
B4: BLW-2B4 (antibody, V domains shown)
VH: B3 VH
VL: B3 VL with S54N
notes: OmniRat hybridoma supernatant: human V regions on rat constant regions; also called V regions cloned as CD3B311 (CD3H218/CD3L123)
B5: BLX-1F8 (antibody, V domains shown)
VH: B3 VH with N87K, V100S
VL: B3 VL with R27S, G70D
notes: OmniRat hybridoma supernatant: human V regions on rat constant regions; also called V regions cloned as CD3B314 (CD3H220/CD3L126)
B6: BLW-2E6 (antibody, V domains shown)
VH: B3 VH with G10R, K13R, V100A
VL: B3 VL with R27S, D28N
notes: OmniRat hybridoma supernatant: human V regions on rat constant regions; also called V regions cloned as CD3B312 (CD3H219/CD3L124)
B7: C33B911 (antibody, V domains shown)
VH: EVQLVESGGGLVQPGRSLRLSCAASGFTFDDYAMHWVRQAPGKGLEWVSGIGWSGGSIVYADSVKGRFKISRDNAKNSLYLQMNSLRAEDTALYYCAKDSPYGDFFDYWGQGTLVTVSS
VL: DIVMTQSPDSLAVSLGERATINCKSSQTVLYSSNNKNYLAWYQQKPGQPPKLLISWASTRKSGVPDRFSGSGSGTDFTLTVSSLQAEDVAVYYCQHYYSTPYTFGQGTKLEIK
notes: OMNIMouse-derived anti-CD33 mAb; same V regions as C33B903; also called C33H251/C33L117; C33F549
B8: C33B913 (antibody, V domains shown)
VH: EVQLLESGGGLVQPGGSLKLSCTASGFTFRSYAMSWVRQAPGKGLEWVSAINGYGDGRYYADSVKGRFTISRDNSKNTLYLQMNSLRAEDTAVYSCAKDQGFGELFFDYWGQGTLVTVSS
VL: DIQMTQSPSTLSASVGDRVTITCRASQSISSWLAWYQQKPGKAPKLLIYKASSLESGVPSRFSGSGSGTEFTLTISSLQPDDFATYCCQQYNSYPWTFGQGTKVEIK
notes: OMNIMouse-derived anti-CD33 mAb; same V regions as C33B905; also called C33H253/C33L119; C33F551
B9: C33B915 (antibody, V domains shown)
VH: EVQLVESGGGLVQPGRSLRLSCAASGFTFDDYAMHWVRQVPGEGLEWVSGISWNGGDMVYADSVKGRFTISRDNAKNSLYLQMNSLRPEDTALYYCVKDMPYFDFLTGSDYYYYGMDVWGQGTTVTVSS
VL: SYELTQPPSVSVSPGQTASITCSGDNLGNEHVCWYHQKPGQSPVLVIYQNNKRPSGIPERFSGSNSGNTATLSISGTQATDEADYYCQAWDSTTAVFGGGTKLTVL
notes: OMNIMouse-derived anti-CD33 mAb; same V regions as C33B907; also called C33H255/C33L121; C33F553

Tests used:
Cyno CD33 full length = biological target: T1, Cyno CD33 full length (cynomolgus monkey); experiment: flow cytometry on HEK293F cells expressing cyno CD33
T1 construct: also called cyCD33
Description: (§1) The purified antibodies were assessed for binding to stably transfected HEK293F cells expressing human CD33 or cyno CD33 (generation described above) along with the parental HEK293F as negative control. Cells were harvested from tissue culture flasks using non-enzymatic dissociation buffer (Thermo Scientific). The flasks were rinsed twice with PBS and dissociation buffer was added to the flask, and the flask was incubated for 10 minutes at 37° C. until the cells became non-adherent. The cells were centrifuged at 300 g for 5 minutes and resuspended at 1.0×10⁶ cells/ml in staining buffer (Becton Dickinson; Franklin Lakes, NJ). 50,000 cells/well of each cell type was plated in 50 μl of staining buffer in round bottom plates (Becton Dickinson). […] 100 μl staining buffer was added to all wells of each plate, the plates were spun at 300 g for 5 min, the buffer was removed, 200 μl staining buffer was added to all wells of each plate, the plates were spun at 300 g for 5 min, and the buffer was removed. 50 μl of 2 μg/ml of Goat-anti-human Fc AF647 secondary antibody (Jackson Immunoresearch; West Grove, PA) was added to all wells of the plates, and the plates were incubated for 30 min at 4° C. 100 μl staining buffer was added to all wells of the plates, the plates were spun at 300 g for 5 min, and the buffer was removed. 200 μl running buffer (running buffer is Staining buffer, 1 mM EDTA, 0.1% Pluronic Acid) was added to all wells of the plates, the plates were spun at 300 g for 5 min, and the buffer was removed. 30 μl running buffer containing Sytox Green live/dead dye (ThermoFisher) was added to all wells with cells and the plates were read on an iQue IntelliCyt flow cytometer. Cells were gated on forward vs. side scatter to eliminate debris, then on singlets and then on live cells which excluded the Sytox stain. Antibody binding was assessed by the mean fluorescence intensity in the AF647 channel.
(§2) The OmniMouse panel (8 mAbs total) was generated separately and characterized further for binding to cells.

Human CD33 full length = biological target: T2, Human CD33 full length (human, UniProt P20138 18-364); experiment: flow cytometry on HEK293F cells expressing human CD33
T2 construct: also called huCD33
Description: as §1, §2

Cyno CD33 ECD-HSA = biological target: T3, Cyno CD33 ECD-HSA (cynomolgus monkey); experiment: ProteOn SPR, mAb captured on anti-human Fc, antigen as analyte
T3 construct: Cyno CD33 ECD fused to HSA and a six-histidine tag; also called C33W1
Description: (§3) The panel of mAbs was then further characterized for full affinity analysis as well as epitope binning. The binding of anti-CD33 mAbs to recombinant human CD33 ECD-HSA (C33W2) and cyno CD33 ECD-HSA (C33W1) was measured by ProteOn SPR (Bio-Rad). […] Different mAbs were captured on the anti-human Fc IgG surface at 0.25 or 0.5 μg/ml (160-300 RU) in vertical ligand orientation, with the 6th ligand channel as no ligand surface control. Human and cyno CD33-HSA proteins at 0.3 μM concentration in 3-fold dilution series of 5 concentrations flew in as analyte to bind to captured mAbs in the horizontal orientation. A buffer sample was also injected in the 6th channel to monitor the dissociation of captured mAb and baseline stability. […] The raw biding data were processed by double referencing after subtracting the response data from: 1) the inter-spot to correct for the non-specific interactions between the Ag and the empty chip surface; 2) the buffer channel to correct for baseline drifting due to the dissociation of captured mAb surface over time. The processed data at all antigen concentrations for each mAb were globally fit to a 1:1 simple Langmuir binding model to extract estimates of the kinetic (kₒₙ, koff) and affinity (Kd) constants.

Human CD33 ECD-HSA = biological target: T4, Human CD33 ECD-HSA (human); experiment: as above
T4 construct: CD33 ECD fused at the C-terminus to monomeric HSA (C58S) and a six-histidine tag; also called C33W2; huCD33 ECD-HSA
Description: as §3

[1] = biological target: T5, cynomolgus CD3e/d complex on cells transiently transfected with pcDNA3.1-CD3e/d-cyn-mix (cynomolgus, UniProt Q95LI5 22-198; Q95LI8 22-171); experiment: CELISA, hybridoma supernatant
T5 construct: Tagged screening constructs
Description: (§4) Hybridoma supernatants from fusions BLW (with magnetic bead depletion of lymphocytes) and BLX (without magnetic bead depletion of lymphocytes) were analyzed a) by a cell-based ELISA (CELISA) on cells transiently transfected with human and cynomolgus cDNA cloned into screening vectors: pOPT-CD3e-hum-epsilon-TCE.OMT+pOPT-CD3d-hum-delta.OMT, 1:1 (pOPT-CD3e/d-hum-mix) and pcDNA3.1-CD3e-cyn-[…]+pcDNA3.1-CD3d-cyn-delta, 1:1 (pcDNA3.1-CD3e/d-cyn-mix). For CELISA negative control, non-transfected mammalian cells were incubated with hybridoma supernatants and detected with the secondary Bethyl antibody. For a CELISA transfection control, mammalian cells, transfected with the constructs described above, were detected with anti-tag antibody.

[2] = biological target: T6, human CD3e/d complex on cells transiently transfected with pOPT-CD3e/d-hum-mix (human, UniProt P07766 23-126; P04234 22-171); experiment: CELISA, hybridoma supernatant
T6 construct: Tagged screening constructs
Description: as §4

[3] = biological target: T7, human CD3 on human T cells (human, UniProt P07766 23-207); experiment: flow cytometry, Jurkat CD3+ (E6-1)
T7 construct: Native TCR-CD3 complex on cells; also called primary human T cells; human pan T cells
T7 sequence (P07766 23-207 limits assumed): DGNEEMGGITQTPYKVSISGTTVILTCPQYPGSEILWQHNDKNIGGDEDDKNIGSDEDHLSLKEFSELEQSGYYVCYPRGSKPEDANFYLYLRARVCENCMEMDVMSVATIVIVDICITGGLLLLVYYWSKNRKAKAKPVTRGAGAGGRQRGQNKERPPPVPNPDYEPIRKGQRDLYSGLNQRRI

T6 sequence (P07766 23-126 limits assumed, chain 1 of 2): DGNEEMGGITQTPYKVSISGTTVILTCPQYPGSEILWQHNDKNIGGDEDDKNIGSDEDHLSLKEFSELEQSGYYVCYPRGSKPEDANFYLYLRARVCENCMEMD
T6 sequence (P04234 22-171 limits assumed, chain 2 of 2): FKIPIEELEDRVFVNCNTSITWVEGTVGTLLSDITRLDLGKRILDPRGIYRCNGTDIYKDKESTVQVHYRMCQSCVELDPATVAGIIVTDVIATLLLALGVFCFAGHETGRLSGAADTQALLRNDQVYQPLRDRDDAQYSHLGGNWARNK
T5 sequence (Q95LI5 22-198 limits assumed, chain 1 of 2): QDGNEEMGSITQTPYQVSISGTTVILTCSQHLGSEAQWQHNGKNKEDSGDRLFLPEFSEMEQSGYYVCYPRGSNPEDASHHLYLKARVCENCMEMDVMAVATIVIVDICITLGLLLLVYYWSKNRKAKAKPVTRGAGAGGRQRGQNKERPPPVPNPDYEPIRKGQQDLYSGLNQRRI
T5 sequence (Q95LI8 22-171 limits assumed, chain 2 of 2): as the sequence (P04234 22-171 limits assumed, chain 2 of 2) above, with I5V, N15K, I20V, S32T, D33N, I34N, T64A, S74N, V83L, H141R counted along it
T2 sequence (P20138 18-364 limits assumed): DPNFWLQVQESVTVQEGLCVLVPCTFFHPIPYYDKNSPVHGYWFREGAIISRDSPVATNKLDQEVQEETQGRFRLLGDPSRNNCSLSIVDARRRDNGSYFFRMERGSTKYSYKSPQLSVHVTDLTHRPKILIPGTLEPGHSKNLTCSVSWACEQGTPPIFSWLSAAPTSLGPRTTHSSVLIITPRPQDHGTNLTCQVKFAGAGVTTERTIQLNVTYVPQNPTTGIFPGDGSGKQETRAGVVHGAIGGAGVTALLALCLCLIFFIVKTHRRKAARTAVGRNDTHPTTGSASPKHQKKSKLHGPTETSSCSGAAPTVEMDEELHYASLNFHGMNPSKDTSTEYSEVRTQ

Row | Binder | MFI at 0 nM (background) (Cyno CD33 full length) | MFI at 0.6 nM (Cyno CD33 full length) | MFI at 6 nM (Cyno CD33 full length) | MFI at 60 nM (Cyno CD33 full length) | MFI at 0 nM (background) (Human CD33 full length) | MFI at 0.6 nM (Human CD33 full length) | MFI at 6 nM (Human CD33 full length) | MFI at 60 nM (Human CD33 full length) | Kd (Cyno CD33 ECD-HSA) | koff (Cyno CD33 ECD-HSA) | kon (Cyno CD33 ECD-HSA) | Kd (Human CD33 ECD-HSA) | koff (Human CD33 ECD-HSA) | kon (Human CD33 ECD-HSA) | % positive [1] | Rfu [1] | % positive [2] | Rfu [2] | % positive [3] | geomean [3]
1 | B1 | 86.8 MFI | 22100 MFI | 33400 MFI | 45000 MFI | 185 MFI | 153000 MFI | 315000 MFI | 304000 MFI | 0.44 nM | 0.000233 s⁻¹ | 529000 M⁻¹ s⁻¹ | 22.1 nM | 0.0098 s⁻¹ | 444000 M⁻¹ s⁻¹ |  |  |  |  |  | 
2 | B2 | 104 MFI | 22800 MFI | 33300 MFI | 41000 MFI | 167 MFI | 193000 MFI | 404000 MFI | 448000 MFI | 0.852 nM | 0.000403 s⁻¹ | 473000 M⁻¹ s⁻¹ | 0.655 nM | 0.000411 s⁻¹ | 627000 M⁻¹ s⁻¹ |  |  |  |  |  | 
3 | B3 |  |  |  |  |  |  |  |  |  |  |  |  |  |  | 66% | 320 rfu | 127% | 867 rfu | 72% | 199000 geometric mean fluorescence
4 | B4 |  |  |  |  |  |  |  |  |  |  |  |  |  |  | 47% | 230 rfu | 101% | 689 rfu | 53% | 148000 geometric mean fluorescence
5 | B5 |  |  |  |  |  |  |  |  |  |  |  |  |  |  | 47% | 230 rfu | 101% | 689 rfu | 53% | 148000 geometric mean fluorescence
6 | B6 |  |  |  |  |  |  |  |  |  |  |  |  |  |  | 25% | 121 rfu | 34% | 231 rfu | 3% | 7500 geometric mean fluorescence
7 | B7 | 97.9 MFI | 1940 MFI | 7730 MFI | 17000 MFI | 114 MFI | 13500 MFI | 100000 MFI | 238000 MFI | 1 nM | 0.00115 s⁻¹ | 1.15e+06 M⁻¹ s⁻¹ | 0.0378 nM | 4.14e-05 s⁻¹ | 1.1e+06 M⁻¹ s⁻¹ |  |  |  |  |  | 
8 | B8 | 106 MFI | 35200 MFI | 36900 MFI | 40700 MFI | 128 MFI | 205000 MFI | 409000 MFI | 519000 MFI | 0.12 nM | 0.000308 s⁻¹ | 2.56e+06 M⁻¹ s⁻¹ | 0.969 nM | 0.00064 s⁻¹ | 660000 M⁻¹ s⁻¹ |  |  |  |  |  | 
9 | B9 | 114 MFI | 36200 MFI | 35700 MFI | 37500 MFI | 112 MFI | 138000 MFI | 363000 MFI | 390000 MFI | 0.0234 nM | 8.93e-05 s⁻¹ | 3.81e+06 M⁻¹ s⁻¹ | 4.53 nM | 0.000989 s⁻¹ | 218000 M⁻¹ s⁻¹ |  |  |  |  |  | 
